doi:10.1101/695700 (bioRxiv, 2019)

B1: recombinant HC1 (rHC1), wild type; heavy chain 1 of inter-α-inhibitor (natural protein, human, UniProt P19827 35-672, looked up)
chain: SKSSEKRQAVDTAVDGVFIRSLKVNCKVTSRFAHYVVTSQVVNTANEAREVAFDLEIPKTAFISDFAVTADGNAFIGDIKDKVTAWKQYRKAAISGENAGLVRASGRTMEQFTIHLTVNPQSKVTFQLTYEEVLKRNHMQYEIVIKVKPKQLVHHFEIDVDIFEPQGISKLDAQASFLPKELAAQTIKKSFSGKKGHVLFRPTVSQQQSCPTCSTSLLNGHFKVTYDVSRDKICDLLVANNHFAHFFAPQNLTNMNKNVVFVIDISGSMRGQKVKQTKEALLKILGDMQPGDYFDLVLFGTRVQSWKGSLVQASEANLQAAQDFVRGFSLDEATNLNGGLLRGIEILNQVQESLPELSNHASILIMLTDGDPTEGVTDRSQILKNVRNAIRGRFPLYNLGFGHNVDFNFLEVMSMENNGRAQRIYEDHDATQQLQGFYSQVAKPLLVDVDLQYPQDAVLALTQNHHKQYYEGSEIVVAGRIADNKQSSFKADVQAHGEGQEFSITCLVDEEEMKKLLRERGHMLENHVERLWAYLTIQELLAKRMKVDREERANLSSQALQMSLDYGFVTPLTSMSIRGMADQDGLKPTIDKPSEDSPPLEMLGPRRTFVLSALQPSPTHSSSNTQRLPDRVTGVDTD

Experiments:
[1] = target: the molecule itself; test: AUC
[2] = target: the molecule itself; test: AUC; remark: listed apart in the source
[3] = target: B1; test: SPR

Binder	Kd [1]	stoichiometry N [2]	Kd [3]
B1	35.3 µM	2	
vitronectin (natural protein, UniProt P04004 20-478, looked up) DQESCKGRCTEGFNVDKKCQCDELCSYYQSCCTDYTAECKPQVTRGDVFTMPEDEYTVYDDGEEKNNATVHEQVGGPSLTSDLQAQSKGNPEQTPVLKPEEEAPAPEVGASKPEGIDSRPETLHPGRPQPPAEEELCSGKPFDAFTDLKNGSLFAFRGQYCYELDEKAVRPGYPKLIRDVWGIEGPIDAAFTRINCQGKTYLFKGSQYWRFEDGVLDPDYPRNISDGFDGIPDNVDAALALPAHSYSGRERVYFFKGKQYWEYQFQHQPSQEECEGSSLSAVFEHFAMMQRDSWEDIFELLFWGRTSAGTRQPQFISRDWHGVPGQVDAAMAGRIYISGMAPRPSLAKKQRFRHRNRKGYRSQRGHSRGRNQNSRRPSRATWLSLFSSEESNLGANNYDDYRMDWLVPATCEPIQSVFFFSGDKYYRVNLRTRRVDTVDPPYPRSIAQYWLGCPAPGHL			~0.0002 µM
